Seven molecules from PMC8352653 (Cell Reports, 2021) can be followed below.

B1: COV2-2002 (antibody, V domains shown)
VH: EVQLVESGGGLVQPGGSLRLSCAASGFTFSFYWMSWVRQAPGKGLEWVANIKQDGSEKYYVDSVKGRSTISRDNAKNSLYLQMNSLRAEDTAVYYCARVGSSSWYFDYWGQGTLVTVSS
VL: not shown
B2: COV2-2333 (antibody, V domains shown)
VH: B1 VH with F31I, E46Q, G55A, S68F, V99L, S101G, Y105H
VL: SYELTQPPSVSVSPGQTASITCSGDKLGDKYSSWYQQKPGQSPVLVIYEDTKRPSGIPERFSGSNSGNTATLTISGTQAMDEADYYCQAWSSSTAVFGGGTKLTVL
B3: CnC2t1p1_B10 (antibody, V domains shown)
VH: QVQLVQSGAEVKKPGSSVKVSCKASGGTFSSYAISWVRQAPGQGLEWMGGIIPIFGTANYAQKFQGRVTITADKSTSTAYMELSSLRSEDTAVYYCARVSGYDSSGYWGDYWGQGTLVTVSS
VL: EIVLTQSPATLSLSPGERATLSCRASQSVSSYLAWYQQKPGQAPRLLIYDASNRATGIPARFSGSGSGTDFTLTISSLEPEDFAVYYCQQRSNWPPALTFGGGTKVEIK
B4: COV2-2531 (antibody, V domains shown)
VH: QVQLQESGPGLVKPSETLSLTCSVSGGSIRSYFWNWVRQPPGKGLEWIGYIYYSGSTNYKPSFKSRVTISLDTSKNQISLKLSSVTAADTAVYYCARATWLRDAFGIWGQGTMVTVSS
VL: NFMLTQPHSVSESPGKTVTISCTGNSGSIASNYVQWYQQRPGSAPTTVIYEDSQRPSGVPDRFSGSIDSSSNSASLTISGLKTEDEADYYCQSFDSGNVVFGGGTKLTVL
B5: C126 (antibody, V domains shown)
VH: QVQLQESGPGLVKPSETLSLSCAVSGGSIGSYFWSWIRQPPGKGLEWIGYLHYSGSTNYNPSLKSRVTISVDTSKNQFSLKLSSVTAADTAVYYCARLQWLRGAFDIWGQGTMVTVSS
VL: B4 VL with N25S, Y50N, S53N, F94Y, G97S, V99L
B6: C126 Fab (Fab, V domains shown)
VH: B5 VH
VL: B4 VL with N25S, Y50N, S53N, F94Y, G97S, V99L
B7: COV2-2531 Fab (Fab, V domains shown)
VH: B4 VH
VL: B4 VL

Substitutions are numbered along the chain they refer to.

The target in one test is full-length SARS-CoV-2 S protein expressed in HEK293T cells (SARS-CoV-2, Wuhan-Hu-1, UniProt P0DTC2). As to the kind of experiment: flow cytometry on cells.
As to B1, the binding result is listed as “binds”.

B2: the binding result is “binds”.

Turning to B3, the binding result is “binds”.

Turning to B4, the binding result is “binds”.

With B5, the binding result was “binds”.

In another test the target is variant of S6P_(ecto) protein containing a C-terminal Twin-Strep-tag (SARS-CoV-2, Wuhan-Hu-1 (assumed), UniProt P0DTC2, stabilised). The test can be described thus: negative stain electron microscopy.
B6: the binding result was “binds”.

As to B7, the binding result is recorded as “binds”.
